Reference: PMC2196875
pKd: −log10 of the molar value.

Biological target: titin fragment Z9-Z10 as used in isothermal titration calorimetry (human)
Assay: ITC

pKd: 6.70 to 7.00
Substance: untagged obscurin fragment Ob48-Ob49 (domain or fragment)
